Where no end group is shown, it is not given here.
Columns and labels:
DRD1 = DRD1 (UniProt P21728 1-446); experiment: cell-based or functional assay
CXCR7 = CXCR7 (UniProt P25106 1-362); experiment: cell-based or functional assay
Chain of CXCR7 (P25106 whole entry): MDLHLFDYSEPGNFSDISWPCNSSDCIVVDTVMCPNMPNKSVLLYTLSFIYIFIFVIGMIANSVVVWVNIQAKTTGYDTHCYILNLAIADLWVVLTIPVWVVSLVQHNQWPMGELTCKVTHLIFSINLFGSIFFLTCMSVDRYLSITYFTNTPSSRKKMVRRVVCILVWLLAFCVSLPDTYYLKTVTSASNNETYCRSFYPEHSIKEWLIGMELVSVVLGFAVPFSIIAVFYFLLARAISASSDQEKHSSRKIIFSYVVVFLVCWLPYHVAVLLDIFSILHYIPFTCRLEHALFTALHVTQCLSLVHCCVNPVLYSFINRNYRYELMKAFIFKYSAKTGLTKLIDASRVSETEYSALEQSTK

Chain of DRD1 (P21728 whole entry): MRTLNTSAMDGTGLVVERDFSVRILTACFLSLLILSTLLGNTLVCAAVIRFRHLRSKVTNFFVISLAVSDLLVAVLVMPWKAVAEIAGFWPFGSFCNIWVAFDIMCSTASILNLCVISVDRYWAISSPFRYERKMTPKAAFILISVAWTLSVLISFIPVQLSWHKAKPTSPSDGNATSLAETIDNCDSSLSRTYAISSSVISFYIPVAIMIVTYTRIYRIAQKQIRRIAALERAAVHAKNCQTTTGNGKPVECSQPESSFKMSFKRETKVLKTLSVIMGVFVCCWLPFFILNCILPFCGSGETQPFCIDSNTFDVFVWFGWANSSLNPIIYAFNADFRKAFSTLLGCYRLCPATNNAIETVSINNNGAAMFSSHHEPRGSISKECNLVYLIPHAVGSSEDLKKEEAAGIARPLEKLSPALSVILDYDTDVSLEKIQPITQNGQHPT

B1: octadecaneuropeptide (ODN) (peptide)
peptide: QATVGDVNTDRPGLLDLK
modifications: also: synthesised on Rink amide resin, C-terminal amide not given here outright
- % Activity, arrestin, antagonist mode, 2.5 uM (DRD1): 5.7%
- % Activity, arrestin, antagonist mode, 2.5 uM (CXCR7): -9.6%
